One test has as its system GL261 cells. In words: intracranial survival study in GL261 murine glioma model. The test is classed as in vivo, C57BL/6 mice. As to conditions: peptide loaded DC vaccine, GL261-C57BL/6 glioma model, FIG. 6. The method, then:
FIG. 6 provides a graphical representation of data obtained from intracranial survival studies in a GL261 murine model utilizing altered peptides based on survivin amino acids 53-67. The peptides were administered using peptide loaded dendritic cell (DC) vaccines or as Keyhole Limpet Hemocyanin (KLH) conjugates. To obtain the data presented in FIG. 6, mice were intracranially implanted with 1×10^5 GL261 cells and were treated with survivin peptide DC vaccines. C57BL/6 mice were immunized with SVN57-64 based altered peptides, or OVA258-265 peptide loaded DC2.4 cells as well as a direct subcutaneous injection of 100 ug SVN 53-67/M57-KLH peptide in Incomplete Freund's Adjuvant (IFA) plus 100 ug GM-CSF. Vaccinations began 4 days after tumor cell implantation and were repeated (boosted) every 7 days to simulate a therapeutic setting. Survival was plotted according to Kaplan-Meier methods. Long-term survivors were confirmed tumor-free by high field strength MRI.

Test [1] addresses T1, HLA-A*0201 (Homo sapiens, UniProt P04439, D140Y/D185E/D98H/E176V/E277Q/G131W/G231S/I119V/I121R/I166T/I218V/L300P/L318F/N151K/N90K/P208A/P217A/Q86G/Q94H/R138H/R169H/T345S). Put plainly: MHC class I peptide competitive displacement assay. As to conditions: displacement of labeled HPV18-27, FIG. 4A-B. The source says: (§1) FIGS. 4A, 4B and 4C provide a graphical representations of data from an analysis of HLA-A*0201 binding properties of survivin peptides. To obtain the data summarized in FIGS. 4A and 4B, survivin peptide epitopes were used in MHC class I peptide competitive displacement assays. IC50 represents the 50% inhibition concentration of survivin peptide required to displace a fluorescently labeled-known human MHC Class I ligand (HPV18-27). Positive control peptides (Flu & gp100) represent known immunogenic MHC class I ligands. Data represent mean fluorescence±S.E.M. of triplicate samples. FIG. 4C provides a graphical representation of data for specific HLA-A*0201 pentamer binding of wild type and altered survivin peptide epitopes.
(§2) As such, both peptides will bind H-2 Kb (the murine MHC class I counterpart) to a similar extent in mice. […] However, it is in administration to humans that the peptides of the invention are expected to display their enhanced potential, since the alteration of 57C to M alters the wild type peptide so that it contains a sequence that facilitates improved interaction with human MHC I. This is supported by the disparate MHC class I binding characteristics of the wild type and M57 peptides (FIG. 4A-C). As determined by competitive peptide binding assays, SVN53-67/M57 binds HLA-A*0201 approximately 12 fold stronger than the wild type SVN53-67 (FIG. 4A-B). […]

In test [2] the target is T1, HLA-A*0201. Put plainly: survivin/MHC Class I-specific pentamer binding.
Description: as §1, §2

The target in a further test is T2, H2-K^b (Mus musculus, UniProt P01901).
T2 construct: Upregulation of H2-K^b molecules on the surface of murine RMA-S cells; endogenous in cells; host or cells: murine RMA-S cells
T2 sequence (P01901 22-369): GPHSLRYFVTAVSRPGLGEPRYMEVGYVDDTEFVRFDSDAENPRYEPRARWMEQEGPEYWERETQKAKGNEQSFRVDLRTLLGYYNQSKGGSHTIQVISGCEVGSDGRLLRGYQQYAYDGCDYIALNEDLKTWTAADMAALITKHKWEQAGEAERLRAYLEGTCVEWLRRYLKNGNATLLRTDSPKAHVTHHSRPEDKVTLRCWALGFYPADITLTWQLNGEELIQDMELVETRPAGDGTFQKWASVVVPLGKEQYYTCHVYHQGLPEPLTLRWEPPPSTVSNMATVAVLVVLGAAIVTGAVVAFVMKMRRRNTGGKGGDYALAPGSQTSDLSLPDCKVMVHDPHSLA
T2 sequence (P01887 21-119 partner): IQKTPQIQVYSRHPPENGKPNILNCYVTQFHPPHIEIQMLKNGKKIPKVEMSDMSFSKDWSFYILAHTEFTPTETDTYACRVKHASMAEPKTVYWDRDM
In words: MHC class I peptide binding assay, upregulation of H2-K^b on RMA-S cells. The test is classed as cell-based, murine. Conditions: 100 μM peptide at 37° C., FIG. 3. The method, then:
To obtain the data presented in FIG. 3, survivin peptide epitopes were used in conventional MHC class I peptide binding assays. Mean fluorescence in FIG. 3 represents binding of SVN peptides to H2-K^b. Upregulation of H2-K^b molecules on the surface of murine RMA-S cells which are deficient in the expression of surface MHC class I molecules was used to determine actual survivin peptide binding in vitro. Data presented in FIG. 3 represent the binding of 100 μM peptide at 37° C.

“M F F C F K E L (MFFCFKEL; SVN-57-64/M57 mutant peptide)”: the “survival compared to wild type peptide” value with GL261 cells was “enhances survival over the wild type peptide”. “DLAQMFFCFKELEGW (SVN53-67/M57 with C to M change)”: the “HLA-A*0201 binding relative to wild type SVN53-67” value with HLA-A*0201 [1] is “approximately 12 fold”. In addition, in the test with HLA-A*0201 [2] (in situ binding assays for HLA-A*0201, FIG. 2 and FIG. 4C), the “increase of MHC I binding relative to the wild type sequence” value is “approximately 73 fold”. For the substance T L G E F L K L [SVN-97], at H2-K^b, the “binding of SVN peptides to H2-K^b (mean fluorescence)” value was “less than SVN 57-64 wt, and considerably less than SVN 57-64/M57”. “SVN56-64/M57: core peptide, survivin 56-64 with the C>M alteration at position 57 (QMFFCFKEL)”: the “HLA-A*0201 binding relative to wild type SVN56-64” value in the test with HLA-A*0201 [2] (pentamer, FIG. 4C) is “approximately 73 fold”.

Values taken from US8580269B2, “Survivin peptides for autoimmune therapies” (Health Research, Inc., priority 2007, dated 2013).
